Molecular target: the molecule itself
Assay: SELDI mass spectrometry of the purified protein alone, non-reduced sample (self-association)
Description: Recombinantly expressed proteins were analyzed by SDS-PAGE, anti-myc western blot, MALDI-MS, and SEC HPLC. In addition, O-linked glycosylation was analyzed by first treating the proteins with O-glycosidase with and without sialidase. The released O-glycans were labeled with anthranilic acid and analyzed by HPLC. The truncated CNGH0010.2 protein containing exons 1-5, 8, 9, 12, and 13 (SEQ ID NO:41) is predicted to be 37.5 kDa. […] In addition, it appears as if the molecule has a propensity to multimerize, as non-reduced analysis by SDS-PAGE, SELDI-MS (FIG. 5), and SEC-HPLC (FIG. 6), all indicate that dimeric and trimeric forms of the truncated CNGH0010.2 molecule exist in solution.

B1: truncated CNGH0010.2 protein containing exons 1-5, 8, 9, 12, and 13 (other)
chain: GPLQSGEESTGTNIGEALGHGLGDALSEGVGKAIGKEAGGAAGSKVSEALGQGTREAVGTGVRQVPGFGAADALGNRVGEAAHALGNTGHEIGRQAEDVIRHGADAVRGSWQGVPGHNGAWETSGGHGIFGSQGGLGGQGQGNPGGLGTPWVHGYPGNSAGSFGMNPQGAPWGQGGNGGPPNFGTNTQGAVAQPGYGSVRASNQNEGCTNPPPSGSGGGSSNSGGGSGSQSGSSGSGSNGDNNNGSSSGGSSSGSSSGGSSGGSSGGSSGNSGGSRGDSGSESSWGSSTGSSSGNHGGSGGGDGHKPGCEKPGNEARGSGESGIQGQGSSWGSGGGDAVGGVNTVNSETS
modifications: O-linked oligosaccharides (sites not given)
notes: The signal peptide (probably residues 1-21, same exon 1) is cleaved in the secreted protein; also called CNGH0010 (exons 1-13); His tagged CNGH0010.2 fusion protein; not shown: C-terminal hexa-His (myc-His vector) tag
binding result: binds

Reference: patent US20080044422A1 (Janssen / Centocor, published 2008)
